According to patent US20030190634:
Like-named read-outs stand apart in the source and are kept apart here.

Columns and labels:
[1] = target: Aquifex sp. DNA ligase (Aquifex sp.) (UniProt O66880); conditions: initial ligation rate, 65 C
[2] = target: T1, T4 DNA ligase (Enterobacteria phage T4?) (UniProt P00970); conditions: initial ligation rate, 0.5 nM enzyme, 37 C
T1 sequence: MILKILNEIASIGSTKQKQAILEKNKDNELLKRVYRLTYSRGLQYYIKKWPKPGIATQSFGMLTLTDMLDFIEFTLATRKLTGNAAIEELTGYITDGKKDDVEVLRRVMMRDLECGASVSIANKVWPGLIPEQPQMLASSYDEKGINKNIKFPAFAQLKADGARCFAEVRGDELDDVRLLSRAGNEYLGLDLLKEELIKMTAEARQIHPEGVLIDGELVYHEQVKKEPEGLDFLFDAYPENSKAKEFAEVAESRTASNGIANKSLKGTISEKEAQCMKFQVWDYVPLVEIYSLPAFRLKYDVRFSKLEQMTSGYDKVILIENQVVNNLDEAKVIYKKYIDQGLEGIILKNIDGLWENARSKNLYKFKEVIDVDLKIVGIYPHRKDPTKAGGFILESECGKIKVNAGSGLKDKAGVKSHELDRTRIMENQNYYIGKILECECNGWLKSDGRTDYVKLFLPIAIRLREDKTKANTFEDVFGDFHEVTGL

[3] = target: Thermus sp. AK16D DNA ligase (Thermus sp. AK16D) (UniProt Q9ZFY8); conditions: initial ligation rate, 65 C
[4] = target: Tth DNA ligase K294R K294R (Thermus thermophilus) (UniProt P26996); conditions: initial ligation rate, 65 C
[5] = target: Tth DNA ligase wild type (Thermus thermophilus) (UniProt P26996); conditions: initial ligation rate, 65 C
[6] = 12.5 nM enzyme, NAD+, 10 mM MgCl2

Aquifex sp. DNA ligase (Aquifex sp.), sequence (O66880 whole entry): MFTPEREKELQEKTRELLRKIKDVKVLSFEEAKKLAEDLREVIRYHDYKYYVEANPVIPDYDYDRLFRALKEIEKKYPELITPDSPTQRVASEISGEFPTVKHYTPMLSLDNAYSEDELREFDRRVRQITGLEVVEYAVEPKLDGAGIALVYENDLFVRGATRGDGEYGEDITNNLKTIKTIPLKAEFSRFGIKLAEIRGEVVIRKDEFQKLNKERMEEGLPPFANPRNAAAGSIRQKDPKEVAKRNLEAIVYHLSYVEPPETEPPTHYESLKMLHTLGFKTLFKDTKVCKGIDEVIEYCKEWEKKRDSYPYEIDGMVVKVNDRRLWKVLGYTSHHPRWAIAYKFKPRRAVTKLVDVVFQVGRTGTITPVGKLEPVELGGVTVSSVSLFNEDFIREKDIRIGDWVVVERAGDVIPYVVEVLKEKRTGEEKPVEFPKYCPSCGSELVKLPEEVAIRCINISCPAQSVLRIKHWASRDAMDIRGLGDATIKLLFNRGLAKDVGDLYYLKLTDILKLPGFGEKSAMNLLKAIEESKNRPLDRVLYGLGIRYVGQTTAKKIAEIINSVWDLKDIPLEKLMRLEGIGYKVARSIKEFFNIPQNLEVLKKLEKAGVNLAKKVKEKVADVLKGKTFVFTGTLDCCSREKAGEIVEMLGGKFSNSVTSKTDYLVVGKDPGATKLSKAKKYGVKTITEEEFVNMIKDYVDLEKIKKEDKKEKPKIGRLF
Tth DNA ligase wild type (Thermus thermophilus), sequence (P26996 whole entry): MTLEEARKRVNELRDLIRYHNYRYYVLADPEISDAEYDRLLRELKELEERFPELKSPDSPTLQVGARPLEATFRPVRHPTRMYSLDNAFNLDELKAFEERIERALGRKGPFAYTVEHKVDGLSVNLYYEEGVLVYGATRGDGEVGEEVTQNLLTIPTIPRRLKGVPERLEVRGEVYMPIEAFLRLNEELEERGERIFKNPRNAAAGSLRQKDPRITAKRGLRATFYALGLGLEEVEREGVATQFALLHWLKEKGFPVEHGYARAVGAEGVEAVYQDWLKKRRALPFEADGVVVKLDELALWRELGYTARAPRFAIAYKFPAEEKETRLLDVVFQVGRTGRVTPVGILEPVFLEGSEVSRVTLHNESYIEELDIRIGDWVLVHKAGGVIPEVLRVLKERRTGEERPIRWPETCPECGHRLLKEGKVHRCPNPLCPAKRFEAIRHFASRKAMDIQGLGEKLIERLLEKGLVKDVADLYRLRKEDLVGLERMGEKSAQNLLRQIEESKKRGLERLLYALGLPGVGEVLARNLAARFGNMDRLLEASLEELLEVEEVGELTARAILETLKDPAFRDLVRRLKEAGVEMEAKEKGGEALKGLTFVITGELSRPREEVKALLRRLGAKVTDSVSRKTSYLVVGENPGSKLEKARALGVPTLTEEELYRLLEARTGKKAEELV
Thermus sp. AK16D DNA ligase (Thermus sp. AK16D), sequence (Q9ZFY8 whole entry): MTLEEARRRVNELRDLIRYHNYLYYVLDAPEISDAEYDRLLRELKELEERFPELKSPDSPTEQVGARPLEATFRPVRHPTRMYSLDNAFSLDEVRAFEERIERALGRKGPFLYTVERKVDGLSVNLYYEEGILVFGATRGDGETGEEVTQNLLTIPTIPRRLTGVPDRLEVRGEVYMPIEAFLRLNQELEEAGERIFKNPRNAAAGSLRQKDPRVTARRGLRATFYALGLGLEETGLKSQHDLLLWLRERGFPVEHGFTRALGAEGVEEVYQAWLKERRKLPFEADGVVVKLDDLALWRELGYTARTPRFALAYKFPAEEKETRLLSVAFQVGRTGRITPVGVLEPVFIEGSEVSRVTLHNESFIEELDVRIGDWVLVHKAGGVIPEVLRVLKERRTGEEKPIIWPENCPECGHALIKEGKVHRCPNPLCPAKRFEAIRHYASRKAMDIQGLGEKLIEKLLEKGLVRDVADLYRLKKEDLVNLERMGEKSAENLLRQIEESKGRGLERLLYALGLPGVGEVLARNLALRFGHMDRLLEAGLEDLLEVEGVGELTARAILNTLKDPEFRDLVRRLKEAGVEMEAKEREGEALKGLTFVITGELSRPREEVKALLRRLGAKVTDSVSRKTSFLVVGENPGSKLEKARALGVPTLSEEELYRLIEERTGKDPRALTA
Tth DNA ligase K294R K294R (Thermus thermophilus), sequence (P26996 whole entry K294R): as the sequence (P26996 whole entry) above, with K294R counted along it

Work on nicked duplex, C-G match at 3'-end yielded an activity (fmol/ (time unit not given)) [1, 6] of 99, an activity (fmol/ (time unit not given)) ([2]; 10 mM MgCl2, 12.5 nM substrate) of 140 and an activity (fmol/ (time unit not given)) [3, 6] of 130. For the same substance, the activity (fmol/ (time unit not given)) [4, 6] was 150 and the activity (fmol/ (time unit not given)) ([5]; 1.25 nM enzyme as printed, NAD+, 10 mM MgCl2) was 55.

With nicked duplex, T-G mismatch at 3'-end the activity (fmol/ (time unit not given)) ([1]; fidelity 3500) was 0.029, the activity (fmol/ (time unit not given)) ([2]; fidelity 50) was 2.8 and the activity (fmol/ (time unit not given)) ([3]; fidelity 5200) was 0.025. For the same substance, the activity (fmol/ (time unit not given)) ([4]; fidelity 5300) was 0.029 and the activity (fmol/ (time unit not given)) ([5]; fidelity 840) was 0.065.

Substance “nicked duplex, T-G mismatch at penultimate 3'-end” has an activity (fmol/ (time unit not given)) ([1]; fidelity 380) of 0.26, an activity (fmol/ (time unit not given)) ([2]; fidelity 19) of 7.1 and an activity (fmol/ (time unit not given)) ([3]; fidelity 1100) of 0.12. It also gave an activity (fmol/ (time unit not given)) ([4]; fidelity 400) of 0.38 and an activity (fmol/ (time unit not given)) ([5]; fidelity 190) of 0.29.
